How the values were obtained:
[1] = target: Vip3Bc1 (wild type, full length, unprocessed) (Bacillus thuringiensis); test: SEC; Superose 6 increase 10/300 GL, 25 mM TrisHCl pH 7.5, 150 mM NaCl; undigested Vip3Bc1 loaded at 1 mg/mL
[2] = target: Vip3Bc1 (wild type, full length, unprocessed) (Bacillus thuringiensis); test: cryo-EM structure; single particle cryoEM of undigested Vip3Bc1, C2 symmetry applied, global resolution 3.9 Å
[3] = target: activated Vip3Bc1 (Vip3Bc1^act), trypsin-digested Vip3Bc1 (Bacillus thuringiensis); test: cryo-EM structure; single particle cryoEM of trypsin-digested Vip3Bc1^act, tilted collection, C4 symmetry applied, global resolution 4.8 Å; model built by homology

| Substance | stoichiometry N [1] | stoichiometry N [2] | stoichiometry N [3] |
| --- | --- | --- | --- |
| Vip3Bc1 (wild type, full length, unprocessed) (natural protein) | 4 | 4 | – |
| activated Vip3Bc1 (Vip3Bc1^act), trypsin-digested Vip3Bc1 (complex) | – | – | 4 |

Reference: PMC8121907
